Results from US20140301946A1 (Novartis, published 2014).
Numbering of substitutions follows the chain as printed.

Assays:
Human FGFR4 ECD [1] = molecular target: T1, Human FGFR4 ECD (human, UniProt P22455 22-369); test: SPR (Biacore), antibody captured, FGFR ECD as analyte
T1 construct: whole entry is the construct; also called FGFR4 D1-D3 construct
Description: The immobilization level and analyte interactions were measured by response unit (RU).
Subsequently, 0.078-100 nM of FGFR receptors, diluted in a 2-fold series, were injected at a flow rate of 80 μl/min for 7 min over both reference and test flow cells. Dissociation of the binding was followed for 10 min using HBS-EP⁺ supplemented with 0.5 mg/ml of BSA and 10 μg/ml heparin as running buffer. After each injection cycle, the chip surface was regenerated with 10 mM glycine, pH 2.0 at 60 μl/min for 70 s.

Human FGFR4 ECD [2] = molecular target: T1, Human FGFR4 ECD; test: SPR (Biacore), assay conditions similar to those for 12425
Human FGFR4 ECD [3] = molecular target: T1, Human FGFR4 ECD; test: SET or Biacore, IgG
FGFR2 D2-D3 Construct = molecular target: T2, FGFR2 D2-D3 Construct (Human); test: HDx-MS: deuterium uptake of FGFR2 D2-D3 peptides with mAb against control without mAb [A), D00032 FIG. 19 (B]
T2 construct: also called E. coli derived FGFR2 D2-D3 protein
T2 chain: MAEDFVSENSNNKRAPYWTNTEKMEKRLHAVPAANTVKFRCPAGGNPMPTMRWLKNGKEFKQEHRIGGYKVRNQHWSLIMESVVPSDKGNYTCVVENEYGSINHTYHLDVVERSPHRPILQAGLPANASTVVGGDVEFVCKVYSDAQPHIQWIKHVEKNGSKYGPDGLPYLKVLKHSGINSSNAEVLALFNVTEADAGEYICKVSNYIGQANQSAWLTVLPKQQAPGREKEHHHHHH

B1: mAb 12422 (antibody, human IgG1, kappa, V domains shown)
VH: QVQLVQSGAEVKKPGSSVKVSCKASGGTFSSYAISWVRQAPGQGLEWMGYISPYMGETHYAQKFQGRVTITADESTSTAYMELSSLRSEDTAVYYCARESYEYFDIWGQGTLVTVSS
VL: DIQMTQSPSSLSASVGDRVTITCRASQSISNDLAWYQQKPGKAPKLLIYATSILQSGVPSRFSGSGSGTDFTLTISSLQPEDFATYYCLQYYDYSYTFGQGTKVEIKR
- Kd (Human FGFR4 ECD [1]): 0.95 nM

B2: mAb 20562 (antibody, human IgG1, kappa, V domains shown)
VH: EVQLLESGGGLVQPGGSLRLSCAASGFTFSDYAMSWVRQAPGKGLEWVSVIEGDASYTHYADSVRGRFTISRDNSKNTLYLQMNSLRAEDTAVYYCARERTYSSAFDYWGQGTLVTVSS
VL: DIQMTQSPSSLSASVGDRVTITCRASQDISSDLNWYQQKPGKAPKLLIYDASNLQSGVPSRFSGSGSGTDFTLTISSLQPEDFATYYCQQHYSPSHTFGQGTKVEIKR
- Kd (Human FGFR4 ECD [2]): 3.3 nM

B3: mAb 12439 (antibody, human IgG1, kappa, V domains shown)
VH: QVQLVQSGAEVKKPGASVKVSCKASGYTFTSYDISWVRQAPGQGLEWMGWINPYNGGTNYAQKFQGRVTMTRDTSISTAYMELSRLRSEDTAVYYCAREGSGMIVYPGWSYAFDYWGQGTLVTVSS
VL: B2 VL with S31N, N34G, D50A, N53S, S93H, P94T, S95P, H96N
- Kd (Human FGFR4 ECD [1]): 4.3 nM

B4: mAb 20811 (antibody, human IgG1, kappa, V domains shown)
VH: B2 VH with E1Q, V50T, A55S, S56N, T58I, H59E, R65K
VL: B2 VL with Q89H, H91W, P94T, S95L, H96Y
- Kd (Human FGFR4 ECD [3]): 0.075 nM
- binding result (FGFR2 D2-D3 Construct): binds
